The results in this text go back to patent US6395523 (NEW ENGLAND BIOLABS, dated 2002).

This data set concerns the molecule itself. As to the kind of experiment: gel filtration in the presence of DNA and Mg++ (self-association). (In gel filtration, larger molecules generally elute earlier.)

B1: nicking endonuclease N.BstNBI (enzyme)
chain: MAKKVNWYVSCSPRSPEKIQPELKVLANFEGSYWKGVKGYKAQEAFAKELAALPQFLGTTYKKEAAFSTRDRVAPMKTYGFVFVDEEGYLRITEAGKMLANNRRPKDVFLKQLVKWQYPSFQHKGKEYPEEEWSINPLVFVLSLLKKVGGLSKLDIAMFCLTATNNNQVDEIAEEIMQFRNEREKIKGQNKKLEFTENYFFKRFEKIYGNVGKIREGKSDSSHKSKIETKMRNARDVADATTRYFRYTGLFVARGNQLVLNPEKSDLIDEIISSSKVVKNYTRVEEFHEYYGNPSLPQFSFETKEQLLDLAHRIRDENTRLAEQLVEHFPNVKVEIQVLEDIYNSLNKKVDVETLKDVIYHAKELQLELKKKKLQADFNDPRQLEEVIDLLEVYHEKKNVIEEKIKARFIANKNTVFEWLTWNGFIILGNALEYKNNFVIDEELQPVTHAAGNQPDMEIIYEDFIVLGEVTTSKGATQFKMESEPVTRHYLNKKKELEKQGVEKELYCLFIAPEINKNTFEEFMKYNIVQNTRIIPLSLKQFNMLLMVQKKLIEKGRRLSSYDIKNLMVSLYRTTIECERKYTQIKAGLEETLNNWVVDKEVRF
notes: Tested for self-association by gel filtration under the same condition as MlyI; No dimers were observed
With B1, the binding result was “no binding”.
